Assay results from publication PMC6713926, “Structural Basis for Properdin Oligomerization and Convertase Stimulation in the Human Complement System” (Frontiers in Immunology, 2019).

Target: T1, FPht, monomeric FP head-tail protein from co-expression of FPh and FPt (human)
T1 construct: properdin (FP), human, TB-TSR3 head fragment (FPh), expressed with the endogenous FP signal peptide; the head fragment of FPc is residues 28-255; properdin (FP), human, TSR4-6 tail fragment (FPt); the tail fragment of FPc is residues 256-469; also called FPht WT; WT FPht
T1 chain 1: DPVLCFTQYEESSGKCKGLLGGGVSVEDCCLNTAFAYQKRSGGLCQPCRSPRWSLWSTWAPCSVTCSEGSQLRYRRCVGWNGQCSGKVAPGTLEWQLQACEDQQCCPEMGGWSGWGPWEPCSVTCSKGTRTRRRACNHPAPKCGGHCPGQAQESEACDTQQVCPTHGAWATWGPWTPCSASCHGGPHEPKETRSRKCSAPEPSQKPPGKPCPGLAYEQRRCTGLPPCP
T1 chain 2: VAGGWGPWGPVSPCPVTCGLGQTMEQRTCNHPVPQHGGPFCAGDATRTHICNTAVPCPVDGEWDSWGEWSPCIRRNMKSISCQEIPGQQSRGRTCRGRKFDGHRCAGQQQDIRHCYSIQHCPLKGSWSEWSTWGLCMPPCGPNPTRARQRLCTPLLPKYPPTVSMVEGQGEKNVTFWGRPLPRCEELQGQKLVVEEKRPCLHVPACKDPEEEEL
Assay: BLI; hFPNb1 amine-coupled on AR2G sensors, FPht (20 μg/mL) loaded on it; C3b, FB variants or C3b + FB at 50 μg/mL each; 30°C; 20 mM MES pH 6.0, 100 mM NaCl, 0.05% Tween, 1 mg/mL BSA, 5 mM MgCl2; FB signal subtracted
Conditions: both partners purified

B1: hFPNb1, FP specific non-inhibitory nanobody (VHH)
VHH: QVQLVESGGGLVQAGGSLRLSCAASERTFTIYAMGWFRQAPGKEREFVAAISRSGENTDYADSVKGRFTISRDNNKNTISLQMNSLKPEDTAVYYCAAGRAILVHTTKKEYDHWGQGTQVTVSS
notes: llama nanobody selected by phage display against FPc
B1: binds.
